Drawing on the supplement of paper PMC10126150, this text covers switch fluorescence ratio for 66 sequences.

± gives the standard deviation of the averaged measurements.
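Further: ATP exposure 15 min at 22 °C before imaging.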

The data set relates to ATP. Briefly: switch fluorescence ratio, 500 uM ATP over buffer (Cy3 cluster intensity, sum of 5 cycles each) (fold (ratio)); higher = stronger signal-on switching upon ATP binding; sequences stand for … in TCGTCGGCAGCGTCAGATGTGTATAAGAGACAGTTTTTTTTTTTTTTTTTTTTTTTTT…TC. The conditions noted are these: aptamer strand: ATP DNA aptamer (quencher-CACCTGGGGGAGTATTGCGGAGGAAGG + anchor), 100 nM annealed; ATP concentration: 500 uM. Put shortly:
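The fluorescence ratio divides summed target-cycle Cy3 intensity by summed buffer-cycle Cy3 intensity for each cluster and is averaged per switch-domain sequence. Cy3-labelled switching-strand clusters on a modified Illumina MiSeq flow-cell were annealed to 100 nM quencher-labelled ATP aptamer, then imaged in selection buffer and again after 15 min with 500 uM ATP at 22 °C. Five such cycles were run, with NaOH stripping and re-annealing between them, and clusters outside 100-1000 RFU were excluded.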
Consider TAAGTTTGGT, for which the switch fluorescence ratio amounted to 0.985 ± 0.021.

AGTCTGACCA: the switch fluorescence ratio was found to be 1.018 ± 0.005.

With GTTGGTCGGG, the switch fluorescence ratio came out at 1.02 ± 0.037.

As to GAGGAATTTT, the switch fluorescence ratio turned out to be 0.983 ± 0.0093.

Regarding TGAAAGGATT, the switch fluorescence ratio worked out at 1.02 ± 0.025.

As to GGGATTGGTT, the switch fluorescence ratio amounted to 0.999 ± 0.047.

With GGATGCAGC, the switch fluorescence ratio came to 0.992 ± 0.024.

Regarding TTATGTGGGA, the switch fluorescence ratio was 0.975 ± 0.037.

Consider TGGTGTGGTT, for which the switch fluorescence ratio was 1.02 ± 0.021.

Consider AGCACGGTTA, for which the switch fluorescence ratio was 1.04 ± 0.049.

Consider CATGTGATTT, for which the switch fluorescence ratio was 0.992 ± 0.023.

As for CCGAAGGGTT, the switch fluorescence ratio was found to be 1.02 ± 0.077.

For the sequence AGTCGGGTAC, the switch fluorescence ratio worked out at 1.04 ± 0.033.

As to AAGTTTATAA, the switch fluorescence ratio was 1 ± 0.015.

Regarding TTATAGGTGC, the switch fluorescence ratio amounted to 1.11 ± 0.022.

For the sequence ATCATGGATG, the switch fluorescence ratio is 0.997 ± 0.019.

GGATGGCGGA: the switch fluorescence ratio is 0.997 ± 0.024.

Regarding AGTGTTGGGC, the switch fluorescence ratio amounted to 1.05 ± 0.023.

On to TGACCGAATT, for which the switch fluorescence ratio is 1.03 ± 0.054.

AATGTCTTTG: the switch fluorescence ratio worked out at 0.984 ± 0.013.

As for ACGTGCAGTG, the switch fluorescence ratio was 0.9525 ± 0.0085.

As for TTGGGGGAAT, the switch fluorescence ratio turned out to be 0.992 ± 0.026.

For TTGGTATTGA, the switch fluorescence ratio came out at 0.99 ± 0.098.

For the sequence GGACTGCGGT, the switch fluorescence ratio was 0.979 ± 0.022.

For TGGAATTGGA, the switch fluorescence ratio came out at 1.03 ± 0.093.

As for TTAATAGTGA, the switch fluorescence ratio was determined as 0.973 ± 0.021.

Turning to GCGTCAGGGG, the switch fluorescence ratio was 1.03 ± 0.086.

As to GTTTGTGGTG, the switch fluorescence ratio was found to be 1.01 ± 0.017.

ACAGGTTGTT: the switch fluorescence ratio came out at 1.03 ± 0.071.

Turning to CCAGGCTAAT, the switch fluorescence ratio stood at 1.03 ± 0.014.

Consider TAGTAGACGA, for which the switch fluorescence ratio was determined as 0.982 ± 0.034.

For the sequence AGGCAGGAGG, the switch fluorescence ratio worked out at 1 ± 0.015.

In the case of TTATTAGTCG, the switch fluorescence ratio worked out at 1.017 ± 0.0064.

On to AAGAATTTTT, for which the switch fluorescence ratio was determined as 1 ± 0.023.

Turning to TTCAGTAGAT, the switch fluorescence ratio was found to be 0.951 ± 0.032.

CTCCGGGCCT: the switch fluorescence ratio was 1.42 ± 0.12.

On to GTGACGATGT, for which the switch fluorescence ratio is 1.01 ± 0.0071.

As for GGTCTTAGTG, the switch fluorescence ratio came to 0.982 ± 0.017.

For TCATCGGCAT, the switch fluorescence ratio is 4.07 ± 1.3.

In the case of CTTATAGTGG, the switch fluorescence ratio is 1.06 ± 0.058.

For TGAAAAACGT, the switch fluorescence ratio is 0.991 ± 0.013.

In the case of CGATAAGGGG, the switch fluorescence ratio amounted to 1.02 ± 0.018.

As to AAGGGTGCTT, the switch fluorescence ratio was determined as 1.018 ± 0.006.

Regarding GGTGTGCATG, the switch fluorescence ratio turned out to be 0.99 ± 0.053.

TAAAGTTTGT: the switch fluorescence ratio turned out to be 0.958 ± 0.026.

On to CCGGCAGGAT, for which the switch fluorescence ratio is 0.988 ± 0.011.

On to GGGGGAGTGC, for which the switch fluorescence ratio worked out at 1.06 ± 0.12.

CCGAAGGGGT: the switch fluorescence ratio amounted to 1.18 ± 0.16.

Turning to TGGCTTAACG, the switch fluorescence ratio turned out to be 0.961 ± 0.0041.

With TTTCTCATTC, the switch fluorescence ratio came out at 1.08 ± 0.12.

GTGAGAGAGT: the switch fluorescence ratio turned out to be 0.962 ± 0.015.

Consider GTGAATAGTT, for which the switch fluorescence ratio was determined as 0.995 ± 0.032.

On to TTATCTGGGA, for which the switch fluorescence ratio amounted to 0.9995 ± 0.0079.

On to CAGTCAAGGG, for which the switch fluorescence ratio is 1.01 ± 0.013.

For the sequence TGGTTTGTTA, the switch fluorescence ratio worked out at 1.02 ± 0.022.

With TTGACACGGG, the switch fluorescence ratio turned out to be 1.11 ± 0.025.

As for TAGGAACGAG, the switch fluorescence ratio was 1 ± 0.024.

Take ACGAGCTAGG: the switch fluorescence ratio turned out to be 1.13 ± 0.026.

Regarding TTTGTGGACT, the switch fluorescence ratio stood at 1.01 ± 0.031.

Turning to GTGTTATTTA, the switch fluorescence ratio is 0.977 ± 0.046.

For TTGCATATTT, the switch fluorescence ratio amounted to 1.05 ± 0.033.

With CGGGAGAATA, the switch fluorescence ratio stood at 0.989 ± 0.013.

Regarding ATATAGGGAT, the switch fluorescence ratio turned out to be 1.021 ± 0.007.

ATCCTTGTGT: the switch fluorescence ratio came out at 0.993 ± 0.02.

Regarding ATGCTATGTG, the switch fluorescence ratio turned out to be 0.9752 ± 0.0055.

On to ACAAAGGAGC, for which the switch fluorescence ratio turned out to be 1 ± 0.022.
